Earlier results in article PMC3505014.

Assays:
[1] = target: NRXN1β ECD (UniProt P58400); test: surface plasmon resonance
[2] = target: Cbln1 (UniProt P23435); test: surface plasmon resonance

Chain of UniProt P58400 (P58400 51-396): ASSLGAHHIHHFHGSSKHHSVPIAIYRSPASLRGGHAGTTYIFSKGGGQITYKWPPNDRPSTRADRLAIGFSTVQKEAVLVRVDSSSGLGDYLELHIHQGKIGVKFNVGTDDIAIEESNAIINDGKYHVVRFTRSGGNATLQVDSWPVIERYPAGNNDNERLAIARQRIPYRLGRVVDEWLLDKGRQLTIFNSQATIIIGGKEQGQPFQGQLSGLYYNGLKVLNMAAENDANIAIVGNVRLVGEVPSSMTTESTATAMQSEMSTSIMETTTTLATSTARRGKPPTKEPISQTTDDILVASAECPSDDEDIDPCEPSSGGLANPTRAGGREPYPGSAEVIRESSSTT

Substance	Kd [1] [nM]	Kd [2] [nM]
Cbln1 (from UniProt P23435)	0.17	–
GluRδ2 (from UniProt O43424)	–	16.5
